Measurements published in patent US20240327503A1 (University of Texas, published 2024).

Molecular target: spike protein of SARS-COV-2 WA1 live virus (SARS-CoV-2, UniProt P0DTC2 14-1273)
Assay: cell-based or functional assay

B1: A7V3 (antibody, V domains shown)
VH: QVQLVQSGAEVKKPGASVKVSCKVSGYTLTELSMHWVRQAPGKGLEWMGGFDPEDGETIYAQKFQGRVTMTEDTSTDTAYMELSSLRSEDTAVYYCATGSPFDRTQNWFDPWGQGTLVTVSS
VL: QSVVTQPPSVSAAPGQKVTISCSGSSSNIGNNYVSWYQQLPGTAPKLLIYDNNKRPSGIPDRFSGSKSGTSATLGITGLQTGDEADYYCGTWDSSLSAVVFGGGTKLTVL
IC50, live virus neutralization of SARS-CoV-2 WA1: 950 pM
